Experiment [1] addresses T1, bovine trypsin (bovine, UniProt P00760 24-246). In words: trypsin (50 nM) BApNA hydrolysis, OD405; peptide at 0.98 µM.
For experiment [2], the target named is T1, bovine trypsin. In words: trypsin (50 nM) BApNA hydrolysis, OD405; peptide at 0.0488 µM.
Experiment [3] has as its target T1, bovine trypsin. As to the kind of experiment: trypsin (50 nM) BApNA hydrolysis, OD405; peptide at 0.0098 µM. How it is done: (§1) The substrates N-succinyl-Ala-Ala-Pro-Phe-p-nitroaniline (AAPFpNA), Nα—Benzoyl-L-arginine-4-nitroaniline hydrochloride (BApNA) and N-succinyl-[…] (AAApNA) are used in competitive binding reaction to determine the inhibitory activities against α-chymotrypsin, bovine trypsin, and porcine pancreatic elastase, respectively. Experiments for α-chymotrypsin and bovine trypsin inhibition were measured in 20 mM CaCl₂, 50 mM Tris-HCl buffer (pH 7.8), and that for porcine elastase inhibition was measured in 50 mM Tris-HCl buffer (pH 8.0). The concentration of the peptide was measured using optical density (OD) at 280 nm. The Michaelis constant (Kₘ) of the enzyme hydrolysis substrate is calculated from the initial rate of substrate hydrolysis at 405 nm. The absorbance value of the substrate was measured at 405 nm after complete hydrolysis. All data were processed using nonlinear regression.
(§2) (1) Added a total 190 μL of reaction buffer (20 mM CaCl₂ and 50 mM Tris-HCl, pH 7.8) along with different concentrations of anti-trypsin peptides (BTs) into the pre-cooled 96-well plate, followed by preheating at 37° C., and spined down at 500 rpm for 5 min. Next added 10 μL of 1 μM trypsin, incubated at 37° C., and then spined down at 500 rpm for 10 min. Finally, added 5 μL of 50 mM BApNA, and mixed by centrifugation at 500 rpm for 1 min. […] The experiment was performed in triplicate. The blank control only contained the reaction buffer and the substrate as the minimum absorption value (Min OD_{405 nm}). The negative control only contained the reaction buffer, the enzyme and the substrate as the maximum absorption value (Max OD_{405 nm}). […] (2) In the reaction system of 205 μL, the final concentrations of trypsin and BApNA were 50 nM and 1.22 mM, respectively. [0456] (3) Data statistics

The target of experiment [4] is T1, bovine trypsin. In words: trypsin (50 nM) BApNA hydrolysis, OD405; peptide at 0.98 µM. As for the experimental part:
as §1, §2
The source holds these as a separate data set.

Experiment [5] has as its target T1, bovine trypsin. In words: trypsin (50 nM) BApNA hydrolysis, OD405; peptide at 0.00098 µM.
The target in experiment [6] is T1, bovine trypsin. The experiment is described as above. This is another data set of the same source.
Experiment [7] addresses T1, bovine trypsin. In words: trypsin (50 nM) BApNA hydrolysis, OD405; peptide at 0.0098 µM. The source holds these as a separate data set.
The target of experiment [8] is T1, bovine trypsin. In words: trypsin (50 nM) BApNA hydrolysis, OD405; peptide at 0.0488 µM. As for the experimental part: as §1, §2
This is another data set of the same source.

Experiment [9] concerns the target T1, bovine trypsin. As to the kind of experiment: trypsin (50 nM) BApNA hydrolysis, OD405; peptide at 9.76 µM.
Experiment [10] deals with T1, bovine trypsin. In words: trypsin (50 nM) BApNA hydrolysis, OD405; peptide at 0.098 µM. How it is done:
as §1, §2

The target of experiment [11] is T1, bovine trypsin. The experiment is described as above. This is another data set of the same source.
Experiment [12] deals with T1, bovine trypsin. As to the kind of experiment: trypsin (50 nM) BApNA hydrolysis, OD405; peptide at 97.56 µM. How it is done: as §1, §2
Experiment [13] deals with T1, bovine trypsin. In words: trypsin (50 nM) BApNA hydrolysis, OD405; peptide at 9.76 µM. As for the experimental part: as §1, §2
This is another data set of the same source.

For experiment [14], the target named is T1, bovine trypsin. In words: trypsin (50 nM) BApNA hydrolysis, OD405; peptide at 0.000098 µM. How it is done:
as §1, §2

Experiment [15] has as its target T1, bovine trypsin. As to the kind of experiment: trypsin (50 nM) BApNA hydrolysis, OD405; peptide at 0.0780 µM. How it is done:
as §1
(1) Added a total 190 μL of reaction buffer (20 mM CaCl₂ and 50 mM Tris-HCl, pH 7.8) along with different concentrations of anti-trypsin peptides (BTs) into the pre-cooled 96-well plate, followed by preheating at 37° C., and spined down at 500 rpm for 5 min. Next added 10 μL of 1 μM trypsin, incubated at 37° C., and then spined down at 500 rpm for 10 min. Finally, added 5 μL of 50 mM BApNA, and mixed by centrifugation at 500 rpm for 1 min. […] The experiment was performed in triplicate. […]

The target of experiment [16] is porcine pancreatic elastase (porcine, UniProt P00772 27-266). In words: elastase inhibition, AAApNA substrate. How it is done:
as §1
(1) Added a total 190 μL of different concentrations of peptides (ECs) against elastase and reaction buffer (20 mM CaCl₂, 50 mM Tris-HCl buffer (pH 8.0)) into the pre-cold 96 well plate, followed by preheating at 37° C. for 5 min and centrifugated at 500 rpm for 1 min and allowed to stand for 4 minutes. […] Finally, added 2 μL of 100 mM AAApNA, and mixed by centrifugation at 500 rpm for 1 min. The plate was incubated at 37° C. for 60 min, and the absorbance value at 405 nm was measured. […]

Bridge positions count the residues as written; N and C are the ends. Ends that are not written are not given here.

T1 sequence (P00760 24-246): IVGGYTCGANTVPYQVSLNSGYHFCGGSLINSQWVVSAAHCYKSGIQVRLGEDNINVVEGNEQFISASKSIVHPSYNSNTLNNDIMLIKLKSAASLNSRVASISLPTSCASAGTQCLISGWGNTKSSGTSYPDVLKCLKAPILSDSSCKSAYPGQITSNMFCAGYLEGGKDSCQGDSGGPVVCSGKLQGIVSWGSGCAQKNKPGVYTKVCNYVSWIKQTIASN
Sequence of porcine pancreatic elastase (P00772 27-266 limits assumed): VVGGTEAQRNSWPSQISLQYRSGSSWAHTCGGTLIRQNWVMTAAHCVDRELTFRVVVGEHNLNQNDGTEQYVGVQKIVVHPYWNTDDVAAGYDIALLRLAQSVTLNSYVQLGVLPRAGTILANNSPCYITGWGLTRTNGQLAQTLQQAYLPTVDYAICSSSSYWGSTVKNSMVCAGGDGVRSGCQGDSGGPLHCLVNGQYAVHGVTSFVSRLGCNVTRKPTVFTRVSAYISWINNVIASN

B1: BT9 (peptide)
peptide: CGRATKSIPPICF
modifications: disulfide 1-12 (inferred)
notes: synthetic
For B1, the “Residual trypsin activity (%)” value in experiment [1] was -0.4%; in [2], 68.1%; in experiment [3], 94.3%; in [4], -0.4%; in experiment [5] it was 100%; in experiment [6], 100%. The “Residual trypsin activity (%)” value in experiment [7] is 94.3%; in experiment [8], 68.1%.

B2: BT25 (peptide)
peptide: CGTATKSIPPICF
modifications: disulfide 1-12 (inferred)
notes: synthetic
Consider B2, for which the “Residual trypsin activity (%)” value in [9] came to 1%; in experiment [10], 100%; in [1], 49.7%; in experiment [11], 100%; in [3], 99.6%; in experiment [4], 49.7%. For the same molecule, the “Residual trypsin activity (%)” value in experiment [5] amounted to 101%; in experiment [6], 101%; in experiment [7] it was 99.6%; in experiment [12], 0.2%; in experiment [13], 1%.

B3: BT67 (peptide)
peptide: CARATKSIPPICF
modifications: disulfide 1-12 (inferred)
notes: synthetic
For B3, the “Residual trypsin activity (%)” value in experiment [9] was 0.1%; in [1], 0.1%; in [2], 49.6%; in experiment [11], 1.5%; in [5], 104%; in experiment [7], 102%.

B4: BT47 (peptide)
peptide: CGRSTKSIPPICF
modifications: disulfide 1-12 (inferred)
notes: synthetic
On to B4, for which the “Residual trypsin activity (%)” value was found to be 5.6% in [10]; 103% in [14]; 108% in experiment [3]; 0.2% in experiment [4]; 39% in experiment [15]; 105% in experiment [6]. Besides, the “Residual trypsin activity (%)” value in experiment [8] came to 57.4%; in [12], 0.1%; in [13], 0%.

B5: BT54 (peptide)
peptide: CGRQTKSIPPICF
modifications: disulfide 1-12 (inferred)
notes: synthetic
As for B5, the “Residual trypsin activity (%)” value in experiment [10] came out at 7.2%; in [14] it was 101%; in experiment [3] it was 99.9%; in [4], 0.1%; in [15] it was 24.3%; in experiment [6], 99.2%. Besides, the “Residual trypsin activity (%)” value was 65.8% in experiment [8] and -0.1% in experiment [13].

B6: BT66 (peptide)
peptide: CPRATKSIPPICF
modifications: disulfide 1-12 (inferred)
notes: synthetic
In the case of B6, the “Residual trypsin activity (%)” value in [9] was 0.1%; in [1] it was 0.1%; in [2] it was 66.8%; in experiment [11], 4.8%; in experiment [5], 105%; in experiment [7], 106%.

B7: BT53 (peptide)
peptide: CGRYTKSIPPICF
modifications: disulfide 1-12 (inferred)
notes: synthetic
Regarding B7, the “Residual trypsin activity (%)” value stood at 63% in experiment [10]; 104% in experiment [14]; 106% in experiment [3]; 0.5% in experiment [4]; 109% in experiment [6]; 87.4% in experiment [8]. For the same molecule, the “Residual trypsin activity (%)” value in [12] was 0%; in experiment [13] it was 0.2%.

B8: EC2 (peptide)
peptide: LCTLSIPPQCY
modifications: disulfide 2-10 (inferred)
Regarding B8, in experiment [16], the binding result was “binds”.

B9: EC7 (peptide)
peptide: CGLATLSIPPICQ
modifications: disulfide 1-12 (inferred)
Consider B9, for which the binding result in [16] is reported as “binds”.

Source of the values: patent publication US20230416329A1 (INSTITUTE OF MATERIA MEDICA CHINESE ACADEMY OF MEDICAL …, published 2023).
